Here are results for one protein from PMC10136361, “Inhibition Analysis and High-Resolution Crystal Structure of Mus musculus Glutathione Transferase P1-1” (Biomolecules, 2023).

This data set deals with the molecule itself. Briefly: crystal structure; co-crystallised with 2.5 mM Nb-GSH, hanging drop vapor diffusion, 0.1 M Tris-HCl pH 8.0, PEG 6000 20% (w/v), 0.2 M calcium chloride; data to 1.28 Å at 100 K; two molecules in the asymmetric unit.

B1: Mus musculus glutathione transferase P1-1 (enzyme, UniProt P19157 1-210, looked up)
chain: MPPYTIVYFPVRGRCEAMRMLLADQGQSWKEEVVTIDTWMQGLLKPTCLYGQLPKFEDGDLTLYQSNAILRHLGRSLGLYGKNQREAAQMDMVNDGVEDLRGKYVTLIYTNYENGKNDYVKALPGHLKPFETLLSQNQGGKAFIVGDQISFADYNLLDLLLIHQVLAPGCLDNFPLLSAYVARLSARPKIKAFLSSPEHVNRPINGNGKQ
notes: Glutathione S-transferase P1, Mus musculus, cloned from cDNA by PCR after GenBank BC061109.1; also called MmGSTP1-1; GSTP1-1 from Mus musculus
As to B1, the binding result was “binds”.
